These results are taken from patent publication US20090068174.

Series [1] concerns the target T1, mouse recombinant IFN-γ, P01580.
T1 chain: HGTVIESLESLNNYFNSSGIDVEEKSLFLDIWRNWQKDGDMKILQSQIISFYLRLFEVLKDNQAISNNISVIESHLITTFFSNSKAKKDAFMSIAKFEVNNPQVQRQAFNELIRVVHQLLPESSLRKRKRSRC

Series [2] deals with T2, human recombinant IFN-γ, P01579.
T2 chain: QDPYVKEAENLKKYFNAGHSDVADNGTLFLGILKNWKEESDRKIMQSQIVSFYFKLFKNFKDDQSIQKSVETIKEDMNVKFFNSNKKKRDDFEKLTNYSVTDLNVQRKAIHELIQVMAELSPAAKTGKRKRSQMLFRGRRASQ

Another series deals with T3, D-val-leu-lys-pNA.
T3 chain: VLK

In series [3] the target is human recombinant TNF-α, P01375.
Series [4] addresses T4, mouse recombinant TNF-α, P06804.
T4 chain: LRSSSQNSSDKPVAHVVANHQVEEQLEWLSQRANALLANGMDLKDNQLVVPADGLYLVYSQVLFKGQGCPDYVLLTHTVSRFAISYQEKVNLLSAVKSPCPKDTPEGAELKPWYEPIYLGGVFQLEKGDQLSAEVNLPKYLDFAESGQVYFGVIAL

human recombinant TNF-α, P01375, sequence (P01375 77-233): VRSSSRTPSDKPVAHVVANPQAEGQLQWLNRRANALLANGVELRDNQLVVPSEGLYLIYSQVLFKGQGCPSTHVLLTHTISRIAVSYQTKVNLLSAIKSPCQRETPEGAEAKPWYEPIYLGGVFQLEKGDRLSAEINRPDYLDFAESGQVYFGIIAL

B1: Aspergillus oryzae alkaline protease (protein)
chain: GLTTQKSAPWGLGSISHKGQQSTDYIYDTSAGEGTYAYVVDSGVNVDHEEFEGRASKAYNAAGGQHVDSIGHGTHVSGTIAGKTYGIAKKASILSVKVFQGESSSTSVILDGFNWAANDIVSKKRTSKAAINMSLGGGYSKAFNDAVENAFEQGVLSVVAAGNENSDAGQTSPASAPDAITVAAIQKSNNRASFSNFGKVVDVFAPGQDILSAWIGSSSATNTISGTSMATPHIVGLSLYLAALENLDGPAAVTKRIKELATKDWKDVKGSPNLLAYNGNA
Turning to B1, the “Proteolysis by Western blotting” value in series [1] was “alkaline protease (AP) purified from the protease powder prepared according to Example 1 evidenced the same substrate specificity”; in series [2] it was “the protease did not cleave human IFN-γ”; in series [4], “alkaline protease (AP) purified from the protease powder prepared according to Example 1 evidenced the same substrate specificity”. In the series with D-val-leu-lys-pNA, this protein came in with a Specific activity: hydrolysis of Val-leu-lys-pNA (absorbance at 405 nm) (mOD/min/µg protein) of 117. Moreover, the “Proteolysis by Western blotting (50 ng cytokine, 2.5-10 ng protease, overnight at 37° C.)” value in series [3] is “Alkaline protease and, to a lesser extent, 26 kDa protease each produced a similar pattern of cleavage”. For the same protein, in the series with salmon protamine sulfate, the Specific activity: hydrolysis of salmon protamine (ninhydrin assay) (nmoles Leucine/30 min./µg protein) was 951.

B2: Aspergillus oryzae deuterolysin (neutral protease II) (protein)
chain: TEVTDCKGDAESSLTTALSNAAKLANQAAEAAESGDESKFEEYFKTTDQQTRTTVAERLRAVAKEAGSTSGGSTTYHCNDPYGYCEPNVLAYTLPSKNEIANCDIYYSELPPLAQKCHAQDQATTTLHEFTHAPGVYQPGTEDLGYGYDAATQLSAQDALNNADSYALYANAIELKC
For the protein B2, the “Proteolysis by Western blotting” value in series [2] was “both deuterolysin and 26 kDa protease cleave human IFN-γ”. This protein also showed a Specific activity: hydrolysis of Val-leu-lys-pNA (absorbance at 405 nm) (mOD/min/µg protein) with D-val-leu-lys-pNA of 2.3. The “Proteolysis by Western blotting (50 ng cytokine, 2.5-10 ng protease, overnight at 37° C.)” value in series [3] is listed as “deuterolysin was without significant effect”. In addition, in the series with salmon protamine sulfate, the Specific activity: hydrolysis of salmon protamine (ninhydrin assay) (nmoles Leucine/30 min./µg protein) was determined as 677.

B3: Aspergillus oryzae 26 kDa protease (protein)
chain: HASADAWASSKAISSTSSPSSFKMRFISVSSLLLALAPALNAVPVEVAGSAQGLDVTLSQVGNTRIKAWKNTGSEDVTFVHLNFFKDAAPVQKVSLFRNATEVQFQGIKQRLITEGLSDDALTTLAPGATIEDEFDIASTSDLSEGGTITINSNGLVPITTDNKVTGYIPFTSNELSIDVDAAEAASVTQAVKILERRTKVTSCSGSRLSALQTALRNTVSLARAAATAAQSGSSSRFQEYFKTTSSSTRSTVAARLNAVANEAASTSSGSTTYYCSDVYGYCSSNVLAYTLPSYNIIANCDLYYSYLPALTSTCHAQDQATTTLHEFTHAPGVYSPGTDDLGYGYSAATALSASQALLNADTYALFANAVNLNC
B3: the “Proteolysis by Western blotting” value in series [2] is “both deuterolysin and 26 kDa protease cleave human IFN-γ”. In the series with D-val-leu-lys-pNA, this protein showed a Specific activity: hydrolysis of Val-leu-lys-pNA (absorbance at 405 nm) (mOD/min/µg protein) of 2.1. Further, in series [3], the “Proteolysis by Western blotting (50 ng cytokine, 2.5-10 ng protease, overnight at 37° C.)” value is reported as “Alkaline protease and, to a lesser extent, 26 kDa protease each produced a similar pattern of cleavage”. In the series with salmon protamine sulfate, this protein registered a Specific activity: hydrolysis of salmon protamine (ninhydrin assay) (nmoles Leucine/30 min./µg protein) of 679.
